Where a chain is given by its changes, count along the chain named.
What was measured:
[1] = target: M17-modified A NTAA target peptides; experiment: encoding assay; P2 S;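 further: fraction of recording tags encoded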
[2] = target: M17-modified D NTAA target peptides; experiment: encoding assay; P2 S;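 further: fraction of recording tags encoded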
[3] = target: M17-modified E NTAA target peptides; experiment: encoding assay; P2 S;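 further: fraction of recording tags encoded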
[4] = target: M17-modified F NTAA target peptides; experiment: encoding assay; P2 S;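 further: fraction of recording tags encoded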
[5] = target: M17-modified G NTAA target peptides; experiment: encoding assay; P2 S;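 further: fraction of recording tags encoded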
[6] = target: M17-modified H NTAA target peptides; experiment: encoding assay; P2 S;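 further: fraction of recording tags encoded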
[7] = target: M17-modified I NTAA target peptides; experiment: encoding assay; P2 S;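 further: fraction of recording tags encoded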
[8] = target: M17-modified L NTAA target peptides; experiment: encoding assay; P2 S;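 further: fraction of recording tags encoded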
[9] = target: M17-modified M NTAA target peptides; experiment: encoding assay; P2 S;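 further: fraction of recording tags encoded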
[10] = target: M17-modified N NTAA target peptides; experiment: encoding assay; P2 S;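 further: fraction of recording tags encoded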
[11] = target: M17-modified P NTAA target peptides; experiment: encoding assay; P2 S;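 further: fraction of recording tags encoded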
[12] = target: M17-modified Q NTAA target peptides; experiment: encoding assay; P2 S;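 further: fraction of recording tags encoded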
[13] = target: M17-modified S NTAA target peptides; experiment: encoding assay; P2 S;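 further: fraction of recording tags encoded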
[14] = target: M17-modified T NTAA target peptides; experiment: encoding assay; P2 S;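 further: fraction of recording tags encoded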
[15] = target: M17-modified V NTAA target peptides; experiment: encoding assay; P2 S;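 further: fraction of recording tags encoded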
[16] = target: M17-modified Y NTAA target peptides (M17-Y-P2-peptide); experiment: encoding assay; P2 S;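 further: fraction of recording tags encoded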
[17] = target: M17-modified M NTAA target peptides; experiment: encoding assay; P2 P;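 further: fraction of recording tags encoded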
[18] = target: M17-modified T NTAA target peptides; experiment: encoding assay; P2 P;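 further: fraction of recording tags encoded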
[19] = target: M17-modified Y NTAA target peptides (M17-Y-P2-peptide); experiment: encoding assay; P2 P;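 further: fraction of recording tags encoded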
[20] = target: M17-modified Y NTAA target peptides (M17-Y-P2-peptide); experiment: Gini coefficient of P1 selectivity from multiplex encoding heatmap
[21] = target: M44-modified D NTAA target peptides; experiment: encoding assay; P2 S;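 further: fraction of recording tags encoded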
[22] = target: M44-modified E NTAA target peptides; experiment: encoding assay; P2 S;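 further: fraction of recording tags encoded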
[23] = target: M44-modified N NTAA target peptides; experiment: encoding assay; P2 S
[24] = target: M44-modified S NTAA target peptides; experiment: encoding assay; P2 S
[25] = target: M44-modified W NTAA target peptides; experiment: encoding assay; P2 S;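 further: fraction of recording tags encoded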
[26] = target: M44-modified A NTAA target peptides (M44-A-P2-peptide); experiment: encoding assay; P2 H
[27] = target: M44-modified D NTAA target peptides; experiment: encoding assay; P2 H;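 further: fraction of recording tags encoded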
[28] = target: M44-modified F NTAA target peptides (M44-F-P2-peptide); experiment: encoding assay; P2 H;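 further: fraction of recording tags encoded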
[29] = target: M44-modified H NTAA target peptides; experiment: encoding assay; P2 H
[30] = target: M44-modified I NTAA target peptides (M44-I-P2-peptide); experiment: encoding assay; P2 H
[31] = target: M44-modified L NTAA target peptides (M44-L-P2-peptide); experiment: encoding assay; P2 H;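 further: fraction of recording tags encoded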
[32] = target: M44-modified M NTAA target peptides; experiment: encoding assay; P2 H
[33] = target: M44-modified N NTAA target peptides; experiment: encoding assay; P2 H
[34] = target: M44-modified P NTAA target peptides; experiment: encoding assay; P2 H;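 further: fraction of recording tags encoded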
[35] = target: M44-modified Q NTAA target peptides; experiment: encoding assay; P2 H
[36] = target: M44-modified T NTAA target peptides; experiment: encoding assay; P2 H
[37] = target: M44-modified V NTAA target peptides; experiment: encoding assay; P2 H;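 further: fraction of recording tags encoded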
[38] = target: M44-modified W NTAA target peptides; experiment: encoding assay; P2 H;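 further: fraction of recording tags encoded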
[39] = target: M44-modified Y NTAA target peptides (M44-Y-P2-peptide); experiment: encoding assay; P2 H;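 further: fraction of recording tags encoded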
[40] = target: M44-modified G NTAA target peptides (M44-G-P2-peptide); experiment: encoding assay; P2 P;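 further: fraction of recording tags encoded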
[41] = target: M44-modified T NTAA target peptides; experiment: encoding assay; P2 P;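 further: fraction of recording tags encoded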
[42] = target: M44-modified A NTAA target peptides (M44-A-P2-peptide); experiment: encoding assay; P2 Y
[43] = target: M44-modified D NTAA target peptides; experiment: encoding assay; P2 Y;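 further: fraction of recording tags encoded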
[44] = target: M44-modified G NTAA target peptides (M44-G-P2-peptide); experiment: encoding assay; P2 Y;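 further: fraction of recording tags encoded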
[45] = target: M44-modified H NTAA target peptides; experiment: encoding assay; P2 Y
[46] = target: M44-modified I NTAA target peptides (M44-I-P2-peptide); experiment: encoding assay; P2 Y
[47] = target: M44-modified L NTAA target peptides (M44-L-P2-peptide); experiment: encoding assay; P2 Y;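 further: fraction of recording tags encoded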
[48] = target: M44-modified M NTAA target peptides; experiment: encoding assay; P2 Y
[49] = target: M44-modified N NTAA target peptides; experiment: encoding assay; P2 Y
[50] = target: M44-modified W NTAA target peptides; experiment: encoding assay; P2 Y;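 further: fraction of recording tags encoded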
[51] = target: M44-modified Y NTAA target peptides (M44-Y-P2-peptide); experiment: encoding assay; P2 Y;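 further: fraction of recording tags encoded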
[52] = target: M44-modified L NTAA target peptides (M44-L-P2-peptide); experiment: Gini coefficient of P1 selectivity from multiplex encoding heatmap

B1: engineered M17-Y binder (SEQ ID NO: 61) (designed binder, not shown: small tags and cut ends; large carriers)
chain: TVPDRSEIAGKWYVVALASNTEFYLREKDWVKSAMARISFLGEDELKVSSAVPSPNGCYKVERTWKKTSDDGEVYNSRAAKLKVEVLDTDYKSYAVIYATRVKDGRTDHQMILYSRSPEVSPAATAIFRKLAGERNYTDEMVAMLPRQEECTVDEV
encoding yield [1]: 0.02
encoding yield [2]: 0.01
encoding yield [3]: 0.01
encoding yield [4]: 0.04
encoding yield [5]: 0.03
encoding yield [6]: 0.02
encoding yield [7]: 0.03
encoding yield [8]: 0.02
encoding yield [9]: 0.04
encoding yield [10]: 0.02
encoding yield [11]: 0.01
encoding yield [12]: 0.01
encoding yield [13]: 0.01
encoding yield [14]: 0.02
encoding yield [15]: 0.02
encoding yield [16]: 0.1
encoding yield [17]: 0.03
encoding yield [18]: 0.01
encoding yield [19]: 0.16
P1 score [20]: 0.196

B2: upgraded binder after additional maturation round (SEQ ID NO: 62) (designed binder, not shown: small tags and cut ends; large carriers)
chain: B1 chain with E27G, W30R, A36V, L41Q, G105R, E119D
encoding yield [1]: 0.02
encoding yield [2]: 0.02
encoding yield [3]: 0.01
encoding yield [4]: 0.07
encoding yield [5]: 0.04
encoding yield [6]: 0.03
encoding yield [7]: 0.05
encoding yield [8]: 0.04
encoding yield [9]: 0.04
encoding yield [10]: 0.02
encoding yield [11]: 0.02
encoding yield [12]: 0.02
encoding yield [13]: 0.01
encoding yield [14]: 0.04
encoding yield [15]: 0.03
encoding yield [16]: 0.22
encoding yield [17]: 0.03
encoding yield [18]: 0.02
encoding yield [19]: 0.28
P1 score [20]: 0.204

B3: engineered M44-A binder (SEQ ID NO: 42) (designed binder, not shown: small tags and cut ends; large carriers)
chain: QVSVQPNFQQDKFLGRWFVAGLASNSSWDREKVAALSGAKMVVAPATDGGLNVTRTMLRKNQCETYTGLLQPAGSLGSYSWRSPHPGSTGSESVVETDYDQYALVYGQGSKGPGEDLRAAALWSRTQTPRAELKEKFTAFSKAQGFTEDTIVFLPQTDKCMTEQ
encoding yield [21]: 0.02
encoding yield [22]: 0.01
encoding yield [23]: 0.01
encoding yield [24]: 0.01
encoding yield [25]: 0.01
encoding yield [26]: 0.05
encoding yield [27]: 0.04
encoding yield [28]: 0.02
encoding yield [29]: 0.02
encoding yield [30]: 0.04
encoding yield [31]: 0.03
encoding yield [32]: 0.04
encoding yield [33]: 0.05
encoding yield [34]: 0.05
encoding yield [35]: 0.05
encoding yield [36]: 0.04
encoding yield [37]: 0.03
encoding yield [38]: 0.03
encoding yield [39]: 0.07
encoding yield [40]: 0.01
encoding yield [41]: 0.01
encoding yield [42]: 0.29
encoding yield [43]: 0.04
encoding yield [44]: 0.08
encoding yield [45]: 0.07
encoding yield [46]: 0.11
encoding yield [47]: 0.1
encoding yield [48]: 0.06
encoding yield [49]: 0.03
encoding yield [50]: 0.05
encoding yield [51]: 0.04

B4: engineered M44-L binder (SEQ ID NO: 31) (designed binder, not shown: small tags and cut ends; large carriers)
chain: QDSTQNLIPAPPLISVPLQPGFWTERFQGRWFLVGFAGNAVQKERQSRLTMQSLILELQEDNSYNITAINVRGQGCRYIISTLVPSSRPGQFTLGNIHSYPQIQSLDVQVADTDYDQFAMVFLQGTSENKQYFEVALAGRTKGLSDELKERFVSFAKSLGLKDNNIVFSVPTDQCIDN
encoding yield [21]: 0.02
encoding yield [22]: 0.01
encoding yield [23]: 0.01
encoding yield [24]: 0.01
encoding yield [25]: 0.01
encoding yield [26]: 0.02
encoding yield [27]: 0.02
encoding yield [28]: 0.01
encoding yield [29]: 0.02
encoding yield [30]: 0.02
encoding yield [31]: 0.02
encoding yield [32]: 0.03
encoding yield [33]: 0.03
encoding yield [34]: 0.03
encoding yield [35]: 0.03
encoding yield [36]: 0.02
encoding yield [37]: 0.02
encoding yield [38]: 0.03
encoding yield [39]: 0.05
encoding yield [40]: 0.01
encoding yield [41]: 0.01
encoding yield [42]: 0.05
encoding yield [43]: 0.05
encoding yield [44]: 0.04
encoding yield [45]: 0.09
encoding yield [46]: 0.16
encoding yield [47]: 0.42
encoding yield [48]: 0.14
encoding yield [49]: 0.02
encoding yield [50]: 0.15
encoding yield [51]: 0.06
P1 score [52]: 0.332

B5: engineered M44-L binder (SEQ ID NO: 21) (designed binder, not shown: small tags and cut ends; large carriers)
chain: QVSVQPNFQQDKFLGRWFYAGHASNSSWYREKVAALSMAKLVVAPATDGGLNATETFLRKNQCETITSLLQPAGSLGSYSSRSPHGGSTWSTSVVETDYDQYALLYLQGSKGPGEDFRGAILASRTQTPRAELKEKFTAFSKAQGFTEDTIVFLPQTDKCMTEQ
encoding yield [26]: 0.01
encoding yield [27]: 0.01
encoding yield [28]: 0.01
encoding yield [29]: 0.01
encoding yield [30]: 0.01
encoding yield [31]: 0
encoding yield [32]: 0.01
encoding yield [33]: 0.01
encoding yield [34]: 0.01
encoding yield [35]: 0.01
encoding yield [36]: 0.01
encoding yield [37]: 0.01
encoding yield [38]: 0.01
encoding yield [39]: 0.02
encoding yield [42]: 0.01
encoding yield [43]: 0.01
encoding yield [44]: 0.01
encoding yield [45]: 0.03
encoding yield [46]: 0.07
encoding yield [47]: 0.08
encoding yield [48]: 0.04
encoding yield [49]: 0.01
encoding yield [50]: 0.01
encoding yield [51]: 0.02
P1 score [52]: 0.412

— patent US20230220589A1
